This is an account of results in patent US20040209282A1.

For assay [1], the target named is 38C13 IgM surface receptor (idiotype receptor) of 38C13 B lymphoma cells. The experiment in a line: cell capture microarray, 38C13 cells growing in culture, no washing, microscopy.
Assay [2] has the same target. The experiment in a line: cell capture microarray, previously frozen 38C13 cells, microscopy.
Assay [3] deals with purified IgM antibody (38C13). The experiment in a line: antibody microarray on FAST slide, goat anti-mouse IgM-HRP detection, chemiluminescence.
Assay [4] deals with 38C13 IgM surface receptor (idiotype receptor) of 38C13 B lymphoma cells. The experiment in a line: antibody microarray probed with 38C13 cell extract, goat anti-mouse IgM-HRP detection.

For the substance “S1C5 anti-idiotype monoclonal antibody (anti-IgM antibody)”, in assay [1], the lowest printed antibody concentration at which bound cells were detected came out at 3.12 µg/mL. In addition, the lowest printed antibody concentration at which bound cells were detected in assay [2] was 6.25 µg/mL. In assay [3], this substance came in with an IgM concentration at which a strong signal was seen of 0.1 µg/mL and a lowest spotted S1C5 concentration giving a strong signal of 25 µg/mL. Further, in assay [4], the extract dilution at which 38C13 IgM was detected (fold dilution (1:x)) worked out at 2000 and the lowest printed S1C5 concentration at which 38C13 IgM of the extract was detected was 50 µg/mL.
